Source: the supplement of paper PMC10567573

B1: CD207 (parent)
chain: MTVEKEAPDAHFTVDKQNISLWPR

Variants of: B1
Test: protein stability index of a GFP-peptide fusion (GPS, HEK-293T) (PSI 1-6); higher = more stable
Details: c terminus: a fixed tail appended
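Also: lentivirally expressed fusions sorted by FACS into six bins by GFP to DsRed ratio, PSI derived from sequencing read proportions per bin multiplied by bin number.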

Row | Variant | protein stability index
1 | A7P | 3.54
2 | A7R | 2.54
3 | A7W | 2.68
4 | A7Q | 3.97
5 | A7T | 3.31
6 | A7V | 3.51
7 | A7M | 2.61
8 | A7S | 3.71
9 | A7Y | 2.93
10 | A7N | 4.01
11 | A10K | 3.09
12 | A10R | 2.48
13 | A10T | 3.83
14 | A10G | 3.75
15 | A10W | 2.4
16 | A10S | 3.5
17 | A10Q | 3.46
18 | A10C | 3.77
19 | A10N | 3.23
20 | A10V | 2.91
21 | A10H | 3.76
22 | A10D | 3.56
23 | A10Y | 3.3
24 | A10P | 3.01

Row | Variant | protein stability index
25 | A10F | 2.84
26 | A10M | 2.31
27 | A10L | 2.91
28 | A10E | 4.07
29 | A10I | 2.21
30 | F12W | 3.35
31 | F12H | 4.02
32 | F12R | 4.04
33 | F12M | 4.14
34 | F12S | 4.1
35 | F12T | 4.09
36 | F12E | 4.38
37 | F12C | 3.72
38 | F12A | 3.78
39 | F12D | 4.92
40 | F12L | 3.72
41 | F12V | 3.74
42 | F12P | 4.66
43 | F12I | 3.96
44 | F12G | 4.03
45 | F12Y | 3.16
46 | F12N | 3.13
47 | F12K | 4.05
48 | F12Q | 4.5

Row | Variant | protein stability index
49 | T13C | 3.2
50 | T13I | 3.49
51 | T13K | 3.61
52 | T13Y | 3.59
53 | T13S | 3.8
54 | T13N | 3.63
55 | T13W | 2.54
56 | T13D | 3.96
57 | T13F | 3.13
58 | T13R | 2.66
59 | T13M | 3.12
60 | T13L | 4.19
61 | T13A | 3.53
62 | T13P | 3.19
63 | T13Q | 3.43
64 | T13V | 3.42
65 | T13G | 3.04
66 | T13H | 3.03
67 | D9F | 2.37
68 | D9K | 2.44
69 | D9S | 3.25
70 | D9Q | 3.23
71 | D9E | 3.15
72 | D9P | 2.95

Row | Variant | protein stability index
73 | D9G | 3.05
74 | D9L | 2.38
75 | D9T | 2.94
76 | D9N | 3.27
77 | D9Y | 2.42
78 | D9A | 2.79
79 | D9R | 3.13
80 | D9H | 2.89
81 | D9M | 2.56
82 | D9I | 2.19
83 | D9C | 3.01
84 | D9W | 2.91
85 | K16L | 2.62
86 | K16H | 3.53
87 | K16E | 4.13
88 | K16F | 2.95
89 | K16C | 3.76
90 | K16I | 2.39
91 | K16D | 3.35
92 | K16A | 3.52
93 | K16N | 3.49
94 | K16M | 2.83
95 | K16G | 3.8
96 | H11W | 1.97

Row | Variant | protein stability index
97 | H11Y | 2.28
98 | H11L | 3
99 | H11A | 3.38
100 | H11V | 3.55
101 | H11S | 3.58
102 | H11D | 3.58
103 | H11I | 2.89
104 | H11N | 3.68
105 | H11M | 2.88
106 | H11P | 3.55
107 | H11R | 2.79
108 | H11K | 3.4
109 | H11T | 3.8
110 | H11C | 3.01
111 | H11E | 4.08
112 | H11Q | 2.95
113 | H11G | 3.06
114 | D15N | 2.54
115 | D15T | 2.74
116 | D15G | 2.92
117 | D15A | 3.35
118 | D15K | 2.81
119 | D15F | 2.06
120 | D15R | 3.06

Row | Variant | protein stability index
121 | D15S | 3.61
122 | D15P | 2.74
123 | D15M | 2.67
124 | D15C | 3.35
125 | D15H | 2.48
126 | D15Y | 1.98
127 | D15Q | 3.17
128 | D15E | 3.51
129 | D15I | 2.31
130 | V14Y | 2.48
131 | V14C | 3.27
132 | V14M | 3.18
133 | V14R | 3.05
134 | V14H | 3.13
135 | V14N | 3.36
136 | V14P | 3.79
137 | V14E | 3.79
138 | V14L | 2.93
139 | V14W | 2.65
140 | V14T | 3.82
141 | V14D | 4.11
142 | V14Q | 3.85
143 | V14A | 3.45
144 | V14I | 3.45

Row | Variant | protein stability index
145 | V14K | 3.41
146 | V14G | 2.35
147 | V14S | 3.81
148 | V14F | 2.42
149 | P8V | 2.86
150 | P8K | 3.54
151 | P8A | 3.52
152 | P8G | 3.02
153 | P8I | 3.22
154 | P8F | 1.98
155 | P8H | 4.79
156 | P8E | 4.39
157 | P8Y | 2.6
158 | P8Q | 3.24
159 | P8N | 3.48
160 | P8R | 3.71
161 | P8L | 2.65
162 | P8S | 3.65
163 | P8W | 1.93
164 | P8T | 3.17
165 | P8D | 3.67
166 | P8C | 2.96
167 | P8M | 3.17
